The results in this text go back to the nanobody polyreactivity screen of Harvey et al. (2022).

This data set can be described thus: yeast display, Sf9 membrane polyspecificity reagent, FACS + sequencing; frameworks hold sequencing errors. In short, it runs like this: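 Galactose-induced (36–48 hours) yeast carrying a synthetic nanobody display library were exposed to 10% biotinylated, detergent-solubilized Sf9 membrane reagent at 4 °C for 1 hour. FACS followed streptavidin microbead enrichment, using low and high (top ~1%) gates for expression (anti-HA) and reagent binding (streptavidin). Colony PCR, MiSeq 2 × 250 sequencing and CDR-length filtering followed. Labels for polyreactivity reflect the gate of origin.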
Regarding “QVQLVESGGGLVQAGGSLRLSCAASGRIFSHTVMGWYRQAPGKEGELVADISSSGGSTYYADSVKWRFTISRDNAKNTVDFQKNSLKPEYTAVYYCAAAPWASGTDEYWGHGTQVTVSS”, the “polyreactivity (PSR sort gate)” value is “low polyreactivity”.

Take “QVQLVESGGGLVQAGGSLRLSCAASGRIFSHYAMGWYRQAPGKERELVASITRGGTRTYADSVKGRFTISRDNAKNTVYLQMNSLKPEDSAVYYCAADGYAYYYEWSQGDLSYDHWGQVTQVTVSS”: the “polyreactivity (PSR sort gate)” value is reported as “low polyreactivity”.

Turning to “QVQLVESGGGLVQAGGSLRLSCAASGRIFSIYAMGWYRQAPGKERELVADITWTGGGTYYADSVKGRFTISRDNAKNTVYLQMNSLKPEDTAVYYCAADLYRKWWYDYWGQGTQVTVSS”, the “polyreactivity (PSR sort gate)” value is “high polyreactivity”.

In the case of “QVQLVESGGGLVQAGGSLRLSCAASGRIFSIYAMGWYRQAPGKERELVASINSGDSTYYADSVKGRFTISRDNAKNTVYLQMNSLKPEDTAVYYCAATLVTVPLYRFDYWGQGTQVTVSS”, the “polyreactivity (PSR sort gate)” value is “low polyreactivity”.

Regarding “QVQLVESGGGLVQAGGSLRLSCAASGRIFSIYGMGWYRQAPGKERELVAVISGSVGITYYADSVKGRFTISRDNAKHTVYLQMNSLKPEDTAVYYCNAKVRRRKYDYWGQGTQVTVSS”, the “polyreactivity (PSR sort gate)” value was “high polyreactivity”.

Consider “QVQLVESGGGLVQAGGSLRLSCAASGRIFSKYTMGWYRQAPGKERELVAAISGSGTSTYYADSVKGRFTISRDNAKNTVYLQMNSLKPEDTAVYYCNAVKSWGHPGRYYWGQGTQVTVSS”, for which the “polyreactivity (PSR sort gate)” value is recorded as “high polyreactivity”.

For “QVQLVESGGGLVQAGGSLRLSCAASGRIFSLNAMGWYRQAPGKERELVAGIRKRGGSTYYADSVKGRFTISRDNAKNTVYLQMNSLKPEDTAVYYCAADRFAFYGRYRGPYYYWGHGTQVTVSS”, the “polyreactivity (PSR sort gate)” value was “high polyreactivity”.

For “QVQLVESGGGLVQAGGSLRLSCAASGRIFSLNDMGWYRQAPGKERELVATIRGRGTSTYYADSVKGRFTISRDNAKNTVYLQMNSLKPEDTAVYYCAARGHGAYGYWGQGSQVTVSS”, the “polyreactivity (PSR sort gate)” value was “low polyreactivity”.

For “QVQLVESGGGLVQAGGSLRLSCAASGRIFSLNTMGWYRQAPGKERELVATITKRGGNTYYADSVKGRFTISRDNAKNTVYLQMNSLKPEDTAVYYCAVPRSITYRYGYWGQGTQVTVSS”, the “polyreactivity (PSR sort gate)” value is reported as “high polyreactivity”.

With “QVQLVESGGGLVQAGGSLRLSCAASGRIFSMNAMGWYRQAPGKERELVAGIRKRGGSTYYADSVKGRFTISRDNAKNTVYLQMNSLKPEDTAVYFCAAQPALTYRFYYLGQGTQVTVSS”, the “polyreactivity (PSR sort gate)” value is reported as “high polyreactivity”.

Turning to “QVQLVESGGGLVQAGGSLRLSCAASGRIFSNNAMGWYRQAPGKERELVAAIDSSGDSTNYADSVKGRFTISRDNAKNTVYLQMNSLKPEDTAVYYCNARQSGRRVWQYLYGYWGQGTQVTVSS”, the “polyreactivity (PSR sort gate)” value is listed as “high polyreactivity”.

Regarding “QVQLVESGGGLVQAGGSLRLSCAASGRIFSNYAMGWYRPAPGKESELVAAISRGGGRTFYADSVTGRFTISRDNAKNTVYLQKNSLKPEDTAVYYCATRSYYVKGDYWGQATQVTVSS”, the “polyreactivity (PSR sort gate)” value was “high polyreactivity”.

For “QVQLVESGGGLVQAGGSLRLSCAASGRIFSPYAMGWYRQATGKERELVAAIDWDGGGTYYADSVKGRFTISRDNAKNTVYLQMNSLKPEDTAVYYCAAETDLANGTSPSDYWGQGTQVTVSS”, the “polyreactivity (PSR sort gate)” value is recorded as “low polyreactivity”.

“QVQLVESGGGLVQAGGSLRLSCAASGRIFSRNAMGRYSQAPGKERELVAAIRWRSGSTYYADSVKGRFTISRDNAKNTVYLQMNSLNPEDTAVYYCAASGPGYSRYTQYDSWGQGTQVTESS”: the “polyreactivity (PSR sort gate)” value is “high polyreactivity”.

As to “QVQLVESGGGLVQAGGSLRLSCAASGRIFSRNTMGWYRQATGKEREFVAAISQSGGRTYYADSVKGRFTISRDNAKNNVYLQMNSLKPEDTAVYYCAARSRGYDIRYGYWGQGTQVTVSS”, the “polyreactivity (PSR sort gate)” value is given as “high polyreactivity”.

For “QVQLVESGGGLVQAGGSLRLSCAASGRIFSRYALGWYSPEPGKERELVAAIRSNGGRTYYADSVKGRFTISRDNAKNTVYLQMNSLKPEDTAVYYCAAAGGGKVSYRDYDYWGQGTQVTVSS”, the “polyreactivity (PSR sort gate)” value is “high polyreactivity”.

On to “QVQLVESGGGLVQAGGSLRLSCAASGRIFSRYAMGLYRQAPGKERELVAAITWRGGSTYYADSVKGRFTISRDNAKNTVYLEMNSLKPEDSAVYYCAKYGSGGRQLRSDSWVQGTQVTVSS”, for which the “polyreactivity (PSR sort gate)” value is on record as “high polyreactivity”.

In the case of “QVQLVESGGGLVQAGGSLRLSCAASGRIFSRYAMGRYRQAPGKERELVAAITQSGTSTYYADSVKGRFTISRDNAKNTVYLQMNSLKPEDTAVYYCNAYRQYRYDYWGQGTQVTVSS”, the “polyreactivity (PSR sort gate)” value is listed as “low polyreactivity”.

“QVQLVESGGGLVQAGGSLRLSCAASGRIFSRYAMGWYRQAPGKERELVATISSGGGTYYADSVKGRFTISRDNAKNTVYLQMNSLKPEDTAVYYCAVQVWYGRYYYWGQGTQVTVSS”: the “polyreactivity (PSR sort gate)” value is listed as “high polyreactivity”.

On to “QVQLVESGGGLVQAGGSLRLSCAASGRIFSRYAMGWYRQAPGKERELVATITRRGGSTSYADSVKGRFTISRDNAKNTVYLQMNSLKPEDTAVYYCAAQSFYGIYYGQQDYDYWGQGTQVTVSS”, for which the “polyreactivity (PSR sort gate)” value is “high polyreactivity”.

For “QVQLVESGGGLVQAGGSLRLSCAASGRIFSRYTMGWYRQAPGKERELVAAISYSGGRTYYADSVKGRFTISRDNAKNTVYLQMYSLKPEDTAVYYCAAPRSVVGAYGFYYWGQGTQVTVSS”, the “polyreactivity (PSR sort gate)” value is listed as “high polyreactivity”.

Turning to “QVQLVESGGGLVQAGGSLRLSCAASGRIFSRYTMGWYRQAPGKERELVAGITRGGGSTYYADSVKGRFTISRDNAKNTVYLQMNSLKPEDTAVYYCAATFAYHDGDYWGQGTQVTVSS”, the “polyreactivity (PSR sort gate)” value is recorded as “low polyreactivity”.

Consider “QVQLVESGGGLVQAGGSLRLSCAASGRIFSSNAMGWYRQAPGKEREFVAAISWRTGSTYYADSVKGRFTISRDNAKNTVYLQMNSLKPEDTAVYYCAAVYWTFWGTIATRYDYWGQGTQVTVSS”, for which the “polyreactivity (PSR sort gate)” value is on record as “high polyreactivity”.

For the sequence “QVQLVESGGGLVQAGGSLRLSCAASGRIFSSNAMGWYRQAPGKERELVAAITSGGSTYADSVKGRFTISRDNAKNTVYLQMNSLKPEDTAVYYCAKDGPGGGTRIYDYWGHGTQVTVSS”, the “polyreactivity (PSR sort gate)” value was “high polyreactivity”.

For the sequence “QVQLVESGGGLVQAGGSLRLSCAASGRIFSSYAMGWSRQAPGKERELVAAISSSGGNTYYADSVKGRFTISRDNAKNTVYLQMNSLKPEDTAVYYCNTRWVHRDWYDYWGQGTQVTVSS”, the “polyreactivity (PSR sort gate)” value is listed as “high polyreactivity”.

In the case of “QVQLVESGGGLVQAGGSLRLSCAASGRIFSSYAMGWYRQAPGKERELVAGITRGGSTYADSVKGRFTISRDNAKNTVYLQMNSLKPEDTAVYYCAADALIATPSWGKYNYWGQGTQVTVSS”, the “polyreactivity (PSR sort gate)” value is given as “high polyreactivity”.

“QVQLVESGGGLVQAGGSLRLSCAASGRIFSSYAMGWYRQAPGKERELVAVISQRGGSTSYADSVKGRFTISRDNAKNTVYLQMNSLKPEDTAVYYCARRPGKGNNYWGQGTQVTVSS”: the “polyreactivity (PSR sort gate)” value is “high polyreactivity”.

Consider “QVQLVESGGGLVQAGGSLRLSCAASGRIFSSYTMGWYRQAPGKERELVAAISWRGGSTYYADSVKGRFTISRDNAKNTVYLQMNSLKPEDTAVYYCAADSRSDPGDYWGQGNQVTVSS”, for which the “polyreactivity (PSR sort gate)” value is reported as “low polyreactivity”.

Regarding “QVQLVESGGGLVQAGGSLRLSCAASGRIFSTNAMGWYRQAPGKERELVATIRTSGGSTYYADSVKGRFTISRDNAKNTVYLQMNSLKPEDTAVYYCAARRFLHYTTYYGTGRYDYWGQGTQVTVSS”, the “polyreactivity (PSR sort gate)” value is reported as “low polyreactivity”.

With “QVQLVESGGGLVQAGGSLRLSCAASGRIFSTNAMGWYRQAPWKERELVASISKSGGSTYYADSVKGRFTISRDNAKNTVYLQMNSLKPEDTAVYYCAASSYSTSYIRGDYWGQGTQVTVSS”, the “polyreactivity (PSR sort gate)” value is listed as “low polyreactivity”.
